These are literature values, as cited in publication PMC11677424, “Early-Stage IM Treatment with the Host-Derived Immunostimulant CPDI-02 Increases Curative Protection of Healthy Outbred Mice Against Subcutaneous Infection with Community-Acquired Methicillin-Resistant Staphylococcus aureus USA300” (Pharmaceutics, 2024).

What is called EC50 is the concentration needed to bring the measured effect to its halfway point.

The subject of data set [1] is primary human mononuclear phagocytes (MPs). As to conditions: primary human MPs; cited from earlier work. The text has this: (§1) Complement Peptide-Derived Immunostimulant-02 (CPDI-02) (formerly EP67) is a novel, second-generation host-derived decapeptide agonist of […] (C5) Receptor 1 (C5aR1/C5a1R/CD88), which is based on the C-terminal pharmacophore of human Complement Peptide C5a (hC5a).

The subject of data set [2] is primary human neutrophils (NPs). The note with it: cited from earlier work.
Text: as §1

B1: hC5a: human Complement Peptide C5a, the parent molecule of CPDI-02 (protein, UniProt P01031 678-751, looked up)
C5a anaphylatoxin: TLQKKIEEIAAKYKHSVVKKCCYDGACVNNDETCEQRAARISLGPRCIKAFTECCVVASQLRANISHKDMQLGR
modifications: C5a anaphylatoxin
B1: the concentration for a half-maximal effect (EC50) in data set [1] and in data set [2] was approximately 7 nM in each case.
